The target in this series is coagulation factor IXa (FIXa) (Homo sapiens, UniProt P00740;P00740 P00740:47-191,P00740:227-461). Briefly: KD comparable to 9.3t.

As to AUGGGGACUAUACCGGCAAUCGUGCAUCCCCAU (ssRNA, 2'-F pyrimidines, 2'-OH purines) [9.20t], the binding result is recorded as “binds”.
